Laboratory results taken from article PMC3242593, “Influence of glioma tumour microenvironment on the transport of ANG1005 via low-density lipoprotein receptor-related protein 1” (British Journal of Cancer, 2011).

Tested on: U87 human glioblastoma cells
Test: [125I]-Angiopep-2 or [125I]-ANG1005 uptake assay in U87 cells (LRP1-mediated endocytosis)
Format: cell-based
Details: unlabelled Angiopep-2 50 μM or preincubated RAP 1 μM, percentage of control, quadruplicate
Experimental: In brief, beads were washed twice with 3 ml of PBS on a Whatman filter and resuspended in 60 μl of PBS. Na^125I (1 mCi) from GE Healthcare (Baie d’Urfé, QC, Canada) was added to the bead suspension for 5 min at room temperature. Iodination was initiated by adding 100 μg of peptide (80–100 μl) diluted in 0.1 M phosphate buffer solution, pH 6.5.
In-vitro silencing of LRP1 was carried out by standard methodologies ([Song et al, 2009]). The sequences of oligonucleotides were […]tt (sense) and […]tt (antisense). Human U87 glioblastoma cells were grown to 50% confluence and were transfected with LRP1 silencing RNA (siRNA) using Lipofectamine 2000 (Life Technologies Corporation, Carlsbad, CA, USA) according to the manufacturer's specifications. After 48 h of transfection, cells were used for subsequent assays. Expression of proteins was assessed by western blot analysis.
Cells were incubated in medium in which the sodium bicarbonate had been replaced with Ringer/HEPES buffer (150 mM NaCl, 5.2 mM KCl, 2.2. mM CaCl2, 0.2 mM MgCl2·6H2O, 6 mM NaHCO3, 2.8 mM glucose, and 5 mM HEPES). […]
Cells were seeded in a 24-well plate (5 × 10^4 cells per well) in appropriate media and fed for 3 days. […] Results were quantified with a Wizard 1470 Gamma counter (Perkin-Elmer, Woodbridge, ON, Canada). […]

B1: RAP: receptor-associated protein, a known LRP1 ligand that competitively inhibits uptake of Angiopep-2 (protein, UniProt P30533 35-357, looked up)
Alpha-2-macroglobulin …: YSREKNQPKPSPKRESGEEFRMEKLNQLWEKAQRLHLPPVRLAELHADLKIQERDELAWKKLKLDGLDEDGEKEARLIRNLNVILAKYGLDGKKDARQVTSNSLSGTQEDGLDDPRLEKLWHKAKTSGKFSGEELDKLWREFLHHKEKVHEYNVLLETLSRTEEIHENVISPSDLSDIKGSVLHSRHTELKEKLRSINQGLDRLRRVSHQGYSTEAEFEEPRVIDLWDLAQSANLTDKELEAFREELKHFEAKIEKHNHYQKQLEIAHEKLRHAESVGDGERVSRSREKHALLEGRTKELGYTVKKHLQDLSGRISRARHNEL
effect of unlabelled competitor on uptake of [125I]-Angiopep-2 (500 nM): inhibited
